Source: paper PMC12362812

Molecular target: NUP93 (nucleoporin 93) (UniProt Q8N1F7)
Experiment: co-immunoprecipitation, Western blot
Conditions: reference: wild-type β-catenin; sites S191

## β‐catenin (from UniProt P35222) β-catenin S191 mutant (S191A)
  binding against the reference: weaker
